Data on 58 molecules can be found in US20240101959A1, “USE OF IL-2R-BETA-GAMMA AGONIST PEPTIDES IN CELL MANUFACTURING” (MEDIKINE, INC., priority 2022, published 2024).

In this test the target is T1, hu-IL-2Rβ subunit (human, UniProt P14784 27-240, limits assumed).
T1 construct: also called human interleukin-2 receptor subunit β; CD122
T1 sequence (looked up): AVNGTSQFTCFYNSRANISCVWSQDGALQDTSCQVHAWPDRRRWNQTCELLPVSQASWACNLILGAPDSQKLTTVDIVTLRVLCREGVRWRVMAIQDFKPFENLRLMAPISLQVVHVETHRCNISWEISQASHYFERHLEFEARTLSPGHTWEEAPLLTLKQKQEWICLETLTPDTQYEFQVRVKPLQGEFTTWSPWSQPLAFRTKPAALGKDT
The test is described as follows: phage ELISA competition assay.

In general, IC50 refers to the concentration needed to halve the response being measured.

Positions of bridges follow the written chain, without caps; N, C: chain ends. No end group written: not given here.

For RYVPDCLKAQVGDLCDFFAW [SEQ ID NO 492], the IC50 was less than 100 µM.

Regarding RWMFDCLFARVGELCDIRPW [SEQ ID NO 506], the IC50 was less than 100 µM.

In turn, KGSSWFPCYFAQVGDLCDLY [SEQ ID NO 487] returned a concentration for half-maximal inhibition (IC50) of less than 100 µM.

WFPCWLAKVGELCDRDDLAGPS [SEQ ID NO 485] yielded an IC50 of less than 100 µM.

In turn, LESLDCFFARIGDLCEIWDV [SEQ ID NO 510] came in with a 50% inhibitory concentration (IC50) of less than 100 µM.

As to HRGWVGWYPCEYALPGQLCDLE [SEQ ID NO 501], the IC50 is less than 100 µM.

MFRYYPCWIASIGELCDLEWGV [SEQ ID NO 460] returned a half-maximal inhibitory concentration (IC50) of less than 100 µM.

Take HRWYPCWLAHLGELCDLDPMS [SEQ ID NO 466]: the IC50 is less than 100 µM.

For WQIFDCYLAQVGELCDLQDT [SEQ ID NO 511], the IC50 is less than 100 µM.

As for WLPCWIAKIGDLCDLD [SEQ ID NO 498], the IC50 was less than 100 µM.

Consider TNGVLDWWPCWMAQVGELCDLD (not fully specified (bridges); cysteine pairing not given here) [SEQ ID NO 471], for which the IC50 is less than 100 µM.

In turn, VVCYACDIAHVGELCDLTCR [SEQ ID NO 508] gave a 50% inhibitory concentration (IC50) of less than 100 µM.

Consider WYPCWMALLGELCDQE [SEQ ID NO 81], for which the half-inhibitory concentration (IC50) was less than 100 µM.

In the case of WLNRHLFNPCWMARLGELCDLE [SEQ ID NO 108], the IC50 is less than 100 µM.

On to RGVYFPCWLAKVGDLCDSDEF [SEQ ID NO 489], for which the 50% inhibitory concentration (IC50) was less than 100 µM.

MRTTFWYDCYIAQVGELCDF (not fully specified (bridges); cysteine pairing not given here) [SEQ ID NO 479] gave an IC50 of less than 100 µM.

In turn, WTGWSAFYPCSIANLGELCDLD [SEQ ID NO 469] had an IC50 of less than 100 µM.

In turn, SLAHRSWYPCWLAQVGELCDLD [SEQ ID NO 464] yielded an IC50 of less than 100 µM.

With TPWYDCYIANVGDLCDFASA [SEQ ID NO 509], the IC50 is less than 100 µM.

DGWWPCWIAQVGELCDLEDPV (not fully specified (bridges); cysteine pairing not given here) [SEQ ID NO 504] gave an IC50 of less than 100 µM.

LPFQDCYIAQVGELCDLPGT [SEQ ID NO 505] had an IC50 of less than 100 µM.

In turn, YRWWYPCDIAQVGELCDLDYLL [SEQ ID NO 496] returned an IC50 of less than 100 µM.

Turning to WWPCEIAQIGELCDLEWVRHAE [SEQ ID NO 476], the half-inhibitory concentration (IC50) was less than 100 µM.

Regarding RVRRHSWWPCEIAVVGELCDLE (not fully specified (bridges); cysteine pairing not given here) [SEQ ID NO 503], the concentration for half-maximal inhibition (IC50) is less than 100 µM.

On to WEHEFTWYPCWIAQVGELCDMD [SEQ ID NO 500], for which the IC50 is less than 100 µM.

Consider WYPCWLAKVGELCDQE [SEQ ID NO 491], for which the IC50 is less than 100 µM.

As for WLPCWLAKLGELCDLEWLPCW [SEQ ID NO 111], the half-maximal inhibitory concentration (IC50) was less than 100 µM.

On to RWDYWPCYIAQVGELCDLEVYE [SEQ ID NO 463], for which the concentration for half-maximal inhibition (IC50) is less than 100 µM.

RAWWWPCELAQVGELCDLEPSS [SEQ ID NO 490]: the IC50 was less than 100 µM.

Molecule SGKTQMWNPCYVAKVGELCDLV [SEQ ID NO 482] came in with an IC50 of less than 100 µM.

In the case of SWHAETWYPCWLAQVGELCDLD [SEQ ID NO 480], the concentration for half-maximal inhibition (IC50) is less than 100 µM.

GGYYDCLIAEVGELCDMPGQ [SEQ ID NO 507]: the IC50 is less than 100 µM.

GRYPDCYIAHVGELCEFYDG (not fully specified (bridges); cysteine pairing not given here) [SEQ ID NO 512] came in with a half-maximal inhibitory concentration (IC50) of less than 100 µM.

The molecule QNASKGWYPCWIAHVGELCDWD [SEQ ID NO 465] registered an IC50 of less than 100 µM.

As for AYYPCELAQLGELCDLYNI [SEQ ID NO 473], the half-maximal inhibitory concentration (IC50) was less than 100 µM.

ERRWYPCWLASVGELCDLDMGD [SEQ ID NO 461] displayed an IC50 of less than 100 µM.

On to AQVRREWYPCWMAQLGELCDLT (disulfide 10-19 (inferred)) [SEQ ID NO 109], for which the 50% inhibitory concentration (IC50) is less than 100 µM.

WYPCWMAKVGELCDME [SEQ ID NO 494] returned an IC50 of less than 100 µM.

The molecule RDWWLPCEFALIGELCDLERSW [SEQ ID NO 478] displayed an IC50 of less than 100 µM.

Consider WWPCYLAQIGELCDLV [SEQ ID NO 493], for which the concentration for half-maximal inhibition (IC50) is less than 100 µM.

In turn, WWPCDFAQIGELCDLGPRFTGE [SEQ ID NO 477] displayed a half-maximal inhibitory concentration (IC50) of less than 100 µM.

With FYPCWIAFVGELCDLE [SEQ ID NO 467], the concentration for half-maximal inhibition (IC50) is less than 100 µM.

Molecule AGFRGRWWPCEYAQVGELCDLE [SEQ ID NO 484] returned an IC50 of less than 100 µM.

For the molecule WEKLQNWYPCWIAQMGELCDLE (not fully specified (bridges); cysteine pairing not given here) [SEQ ID NO 470], the IC50 was less than 100 µM.

As for WGRNRSWYPCWMAQLGELCDLE [SEQ ID NO 113], the half-maximal inhibitory concentration (IC50) is less than 100 µM.

QITDSGWYPCWVAKVGELCDMD [SEQ ID NO 495] returned a half-maximal inhibitory concentration (IC50) of less than 100 µM.

LVYYDCYMAQVGELCDLPSL [SEQ ID NO 514]: the IC50 is less than 100 µM.

For the molecule ETEQMSWYPCWVAQLWELCDLD (disulfide 10-19 (inferred)) [SEQ ID NO 110], the IC50 is less than 100 µM.

Molecule EWFHDCFLAKVGDLCDLFLW [SEQ ID NO 481] came in with a 50% inhibitory concentration (IC50) of less than 100 µM.

Regarding KWFHDCFLAKVGDLCDLFLW [SEQ ID NO 533], the IC50 was less than 100 µM.

For DKAGPNFYPCWLAHVGELCDQA [SEQ ID NO 483], the half-inhibitory concentration (IC50) is less than 100 µM.

FGDDFCRFIPLFEMCTTDVE [SEQ ID NO 513] gave an IC50 of less than 100 µM.

Molecule ERRPDTWFPCWRALVGELCDLE [SEQ ID NO 112] displayed an IC50 of less than 100 µM.

The molecule SRVWHPCWLARVGELCDLEVSD [SEQ ID NO 499] gave a concentration for half-maximal inhibition (IC50) of less than 100 µM.

NDHTAWWPCYFAQVGDLCDLV [SEQ ID NO 475] registered a 50% inhibitory concentration (IC50) of less than 100 µM.

Consider EGHWYPCWIAQLGELCDLDW [SEQ ID NO 468], for which the IC50 is less than 100 µM.

As to WWPCEWARIGELCDLE [SEQ ID NO 486], the 50% inhibitory concentration (IC50) was less than 100 µM.

Molecule WYPCWLAQVGELCDRE [SEQ ID NO 488] gave an IC50 of less than 100 µM.
